{"source": "patent US10428140B2", "about": "“Anti-EphA4 antibody” (EISAI R&D MANAGEMENT CO., LTD., priority 2015, dated 2019)", "key": {"[1]": {"tested_on": "human Eph receptor (EphA1-A8, A10, EphB1-B4, B6)", "test": "Selectivity ELISA for human Eph receptor family", "format": "binding", "conditions": "antibody 10 μg/mL", "description": "According to the method described in Example 1, a DNA sequence encoding the signal sequence and the extracellular region of each human Eph receptor (EphA1, EphA2, EphA3, EphA4, EphA5, EphA6, EphA7, EphA8, EphA10, EphB1, EphB2, EphB3, EphB4, and EphB6) was amplified by RT-PCR using tissue-derived total RNA and cloned into a pENTR1A vector (Invitrogen/Life Technologies) having a DNA sequence encoding a human IgG1 Fc region and histidine tag. Next, the DNA sequence encoding the signal sequence and the extracellular region of each human Eph receptor, Fc, and histidine tag was transferred to a pcDNA3.1_rfcB vector through LR reaction using Gateway System (Invitrogen/Life Technologies) to construct a vector for the expression of a protein of the extracellular region of each human Eph receptor fused with the human IgG1 Fc region and the His tag (referred to as “Eph receptor extracellular region-Fc-His protein”) (this vector is referred to as “Eph receptor extracellular region-Fc-His protein expression vector”). […]\nAntibody A was evaluated for its binding activity against each human Eph receptor according to the following steps.\nEach well of a 96-well plate (Nunc) was coated with a donkey anti-human IgG antibody (Jackson ImmunoResearch Laboratories). […] The absorbance at 450 nm was read using a microplate reader (PerkinElmer)."}, "[2]": {"tested_on": "mouse ES cell derived-motor neuron / variant human SOD1 (G93A)-expressing astrocyte coculture", "test": "Motor neuron protection in in vitro ALS model derived from mouse ES cells", "format": "cell-based", "conditions": "antibody A 10, 30, 100 nM; EphA4-Fc 3, 10, 30 nM; KYL peptide 1, 3, 10 μM; 2 days", "method": "Mouse ES cells were maintained and cultured according to the following steps. Mouse ES cells (129×1/SvJ) cryopreserved at −80° C. were thawed in a thermostat bath and then diluted with a mouse ES cell culture medium (KnockOut(TM) DMEM (Gibco) containing 10% fetal bovine serum (FBS, Gibco), 0.1 mM β-mercaptoethanol (Gibco), 1 mM sodium pyruvate (Invitrogen), 2 mM L-glutamine (Invitrogen), 1% nonessential amino acids (Invitrogen), 100 units/mL penicillin-100 μg/mL streptomycin (Invitrogen), and 1000 units/mL ESGRO(R) leukemia inhibitory factor (Merck Millipore)) warmed to 37° C. Each cell suspension was centrifuged (1500 rpm, 3 min, room temperature), followed by the removal of the supernatant. The cells were suspended in a fresh medium, then transferred to a culture dish with feeder cells inoculated in advance, and maintained and cultured in a CO2 incubator (5% CO2, 37° C.).\nAstrocytes were established from a mouse newborn and maintained and cultured according to the following steps. A two-day-old wild-type mouse newborn (C57BL/6JJmsSlc (Japan SLC)) and a hybrid mouse newborn of a wild-type mouse and a variant human SOD1 (G93A) Tg-(B6.Cg-Tg(SOD1_G93A)1Gur/J ([…])) mouse were each euthanized by inhalation anesthesia with isoflurane (Intervet) or decapitation. […]"}}}
{"molecule": "antibody A: mouse anti-EphA4 monoclonal antibody, IgG1/κ; heavy chain variable region SEQ ID NO: 11, light chain variable region SEQ ID NO: 13 (antibody, listed as Mus musculus, V domains shown) VH: QIQLVQSGPELKKPGETVKISCKASGYTFTDYSMHWVKQAPGKGLKWMGWINTETGEPTYADDFKGRFAFSLETSASTAYLQINNLKNEDTATYFCARIPLYYYGSRYWYFDVWGAGTTVTVSS VL: DIQMTQSPASLSVSVGETVTITCRASENIYRNLAWYQQKQGKSPQLLVYAATNLADGVPSRFSGSGSGTQYSLKINSLQSEDFGSYYCQHFWGTPWTFGGGTKLEIK", "values": [{"measurement": "binding specificity among human Eph receptor family (in words)", "setting": "[1]", "value": "specifically had reaction activity only with human EphA4"}, {"measurement": "suppression of motor neuron death / motor neuron protective effect (in words)", "setting": "[2]", "value": "suppressed, in a concentration-dependent manner"}]}
